The target of the assay is T1, integrin α4β7 expressed on transduced human CD4+ T cells (human, UniProt P13612 34-1032; P26010 20-798).
T1 construct: whole, on cells; Endogenous integrin on sorted human CD4+ cells transduced with the GFP or IL-10-GFP retroviral vector; The cells were CFDSE-labelled in the adhesion assay; also called αA4β7; gut-homing molecule α4β7
The assay is described as follows: cell adhesion assay with blocking mAbs. The protocol:
Adhesion of sorted CD4⁺ cells, transduced with GFP (1 donor) or IL-10-GFP (2 donors), to MAdCAM-1 transfected 293T cells was determined after preincubation with or without the following mAbs: 145 2C11 (control), act-1 (αA4β7) or MECA-367 (αMAdCAM-1). Fluorescent-labelled CD4⁺ cells were added to a 96 well plate that contained confluent MAdCAM-1 transfected 293T cells or control 293T cells. Relative binding inhibition was referred to the maximum binding achieved in the absence of mAbs (as described in Materials and Methods).
We investigated whether transduced CD4⁺ cells were able to bind to the mucosal addressin MAdCAM-1 measuring their adhesion to 293T cells stably expressing the murine MAdCAM cDNA (kindly provided by Dr. S. Fong, Genentech Inc., San Fransisco, Calif., USA). […] Fluorescence was measured in a Cytofluor plate reader (Perceptive Biosystems, Frarningham, Mass., USA) before and after washing. The adherence was calculated as the percentage of fluorescent cells remaining after washing. The maximum binding was calculated as the difference in adherence to MAdCAM-1 transfected and control 293T cells.

The record followed here is patent US20070053889A1 (AMSTERDAM MOLECULAR THERAPEUTICS AMT IP B V, published 2007).

T1 sequence (P13612 34-1032, chain 1 of 2): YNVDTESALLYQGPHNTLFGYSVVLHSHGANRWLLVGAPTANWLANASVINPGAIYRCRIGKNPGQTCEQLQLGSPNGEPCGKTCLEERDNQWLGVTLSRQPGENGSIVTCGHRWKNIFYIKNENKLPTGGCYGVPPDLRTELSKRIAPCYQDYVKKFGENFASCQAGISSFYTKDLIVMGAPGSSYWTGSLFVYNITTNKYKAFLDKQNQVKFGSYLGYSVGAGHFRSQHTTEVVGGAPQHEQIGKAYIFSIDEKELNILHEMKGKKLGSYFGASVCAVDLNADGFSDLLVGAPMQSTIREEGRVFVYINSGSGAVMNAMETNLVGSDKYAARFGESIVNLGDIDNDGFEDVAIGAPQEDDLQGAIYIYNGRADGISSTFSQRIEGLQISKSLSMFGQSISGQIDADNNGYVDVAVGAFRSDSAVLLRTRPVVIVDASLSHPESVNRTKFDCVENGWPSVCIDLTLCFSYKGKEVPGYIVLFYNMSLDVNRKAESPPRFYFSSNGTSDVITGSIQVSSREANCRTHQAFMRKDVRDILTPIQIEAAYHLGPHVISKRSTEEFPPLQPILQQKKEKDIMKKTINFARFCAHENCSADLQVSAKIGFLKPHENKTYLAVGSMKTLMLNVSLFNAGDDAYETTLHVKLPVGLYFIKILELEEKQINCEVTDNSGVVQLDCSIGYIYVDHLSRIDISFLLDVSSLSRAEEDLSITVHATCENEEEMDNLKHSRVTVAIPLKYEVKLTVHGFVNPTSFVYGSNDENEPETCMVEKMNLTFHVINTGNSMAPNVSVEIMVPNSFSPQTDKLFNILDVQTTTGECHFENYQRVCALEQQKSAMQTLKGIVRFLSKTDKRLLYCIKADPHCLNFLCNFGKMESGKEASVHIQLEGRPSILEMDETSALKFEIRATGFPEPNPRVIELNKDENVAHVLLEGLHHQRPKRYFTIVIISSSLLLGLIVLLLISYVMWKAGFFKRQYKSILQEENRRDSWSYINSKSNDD
T1 sequence (P26010 20-798, chain 2 of 2): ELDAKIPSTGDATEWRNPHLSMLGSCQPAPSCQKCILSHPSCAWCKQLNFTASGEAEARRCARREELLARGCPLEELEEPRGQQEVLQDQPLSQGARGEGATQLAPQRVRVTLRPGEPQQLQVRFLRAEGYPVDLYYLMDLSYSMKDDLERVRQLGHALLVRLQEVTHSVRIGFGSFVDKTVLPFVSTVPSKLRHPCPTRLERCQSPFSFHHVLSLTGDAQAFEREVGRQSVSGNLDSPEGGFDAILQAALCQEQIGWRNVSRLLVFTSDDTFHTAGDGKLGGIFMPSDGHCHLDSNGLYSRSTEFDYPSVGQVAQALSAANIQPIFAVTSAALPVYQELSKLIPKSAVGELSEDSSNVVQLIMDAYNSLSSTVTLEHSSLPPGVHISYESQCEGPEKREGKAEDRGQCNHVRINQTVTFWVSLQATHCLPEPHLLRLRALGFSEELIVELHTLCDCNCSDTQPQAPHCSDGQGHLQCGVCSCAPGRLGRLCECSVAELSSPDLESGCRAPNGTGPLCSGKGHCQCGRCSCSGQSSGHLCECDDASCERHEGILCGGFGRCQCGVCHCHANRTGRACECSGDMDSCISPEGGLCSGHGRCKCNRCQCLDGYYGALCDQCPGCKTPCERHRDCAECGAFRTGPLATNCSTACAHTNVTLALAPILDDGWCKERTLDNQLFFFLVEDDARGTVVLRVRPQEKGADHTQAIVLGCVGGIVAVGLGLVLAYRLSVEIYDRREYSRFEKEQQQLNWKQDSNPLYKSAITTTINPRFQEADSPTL

B1: murine MAdCAM-1 stably expressed on 293T cells (ligand, UniProt Q61826 22-405, looked up)
chain: QSFQVNPPESEVAVAMGTSLQITCSMSCDEGVARVHWRGLDTSLGSVQTLPGSSILSVRGMLSDTGTPVCVGSCGSRSFQHSVKILVYAFPDQLVVSPEFLVPGQDQVVSCTAHNIWPADPNSLSFALLLGEQRLEGAQALEPEQEEEIQEAEGTPLFRMTQRWRLPSLGTPAPPALHCQVTMQLPKLVLTHRKEIPVLQSQTSPKPPNTTSAEPYILTSSSTAEAVSTGLNITTLPSAPPYPKLSPRTLSSEGPCRPKIHQDLEAGWELLCEASCGPGVTVRWTLAPGDLATYHKREAGAQAWLSVLPPGPMVEGWFQCRQDPGGEVTNLYVPGQVTPNSSSTVVLWIGSLVLGLLALVFLAYRLWKCYRPGPRPDTSSCTHL
notes: whole, on cells; 293T cells stably expressing the murine MAdCAM cDNA (from Dr. S. Fong, Genentech); also called mucosal addressin MAdCAM-1
B1: the binding result is given as “binds”.
